How the values were obtained:
[1] = biological target: ribosome-nascent chain complex bearing the first ~90 amino acids of pPL(ss), labelled with BODIPY-FL on the nascent chain (bovine); assay: other fluorescence titration; equilibrium FRET titration: SRP^TMR titrated into 1 nM RNC^BDP; donor emission at 517 nm; fit to Eq. (4); 25 °C, Assay buffer with 1 mg/mL BSA; no NAC
[2] = biological target: ribosome-nascent chain complex bearing the first ~90 amino acids of pPL(ss), labelled with BODIPY-FL on the nascent chain (bovine); assay: other fluorescence titration; equilibrium FRET titrations of SRP^TMR into 1 nM RNC^BDP with unlabeled NAC premixed (0-400 nM for RNC(ss), 0-62.5 nM for RNC(ssmt)); global fit to the anti-cooperative co-binding model, Eq. (8); 25 °C, Assay buffer with 1 mg/mL BSA
[3] = biological target: ribosome-nascent chain complex bearing the first ~90 amino acids of pPL(ssmt), labelled with BODIPY-FL on the nascent chain (bovine) (UniProt P01239); assay: as above
[4] = biological target: signal recognition particle (SRP), human, labelled with Cy3B on SRP54 (C47) (human) (UniProt P61011); assay: stopped-flow FRET kinetics
[5] = biological target: signal recognition particle (SRP), human, labelled with Cy3B on SRP54 (C47) (human) (UniProt P61011); assay: stopped-flow FRET kinetics; as a1 but on RNC(ssmt) with 300 nM NAC (saturating)
[6] = biological target: signal recognition particle (SRP), human, labelled with Cy3B on SRP54 (C47) (human) (UniProt P61011); assay: stopped-flow FRET kinetics; as a1, on RNC(ss) of different nascent chain lengths, no NAC; kon against nascent chain length fit to Eq. (18)
[7] = biological target: signal recognition particle (SRP), human, labelled with Cy3B on SRP54 (C47) (human) (UniProt P61011); assay: stopped-flow FRET kinetics; as a1 but SRP^Cy3B pre-incubated with 200 nM RNC(ssmt); no NAC, no HSW
[8] = biological target: signal recognition particle (SRP), human, labelled with Cy3B on SRP54 (C47) (human) (UniProt P61011); assay: stopped-flow FRET kinetics; as a1, on RNC(ssmt) of different nascent chain lengths, with 300 nM NAC; fit to a constant kon
[9] = biological target: signal recognition particle (SRP), human, labelled with Cy3B on SRP54 (C47) (human) (UniProt P61011); assay: stopped-flow FRET kinetics; as a1 but on RNC(ssmt2) with 300 nM NAC
[10] = biological target: signal recognition particle (SRP), human, labelled with Cy3B on SRP54 (C47) (human) (UniProt P61011); assay: stopped-flow FRET kinetics; as a1, on RNC(ssmt) of different nascent chain lengths, no NAC; fit to a constant kon
[11] = biological target: signal recognition particle (SRP), human, labelled with Cy3B on SRP54 (C47) (human) (UniProt P61011); assay: stopped-flow FRET kinetics; as a1, on RNC(ss) of different nascent chain lengths, with 300 nM NAC; kon against nascent chain length fit to Eq. (18)
[12] = biological target: signal recognition particle (SRP), human, labelled with Cy3B on SRP54 (C47) (human) (UniProt P61011); assay: stopped-flow FRET kinetics; as a1 but on RNC(ssmt2); no NAC, no HSW
[13] = biological target: signal recognition particle (SRP), human, labelled with Cy3B on SRP54 (C47) (human) (UniProt P61011); assay: stopped-flow FRET kinetics; as a1 but on RNC(ssmt2) with HSW(RRL)
[14] = biological target: signal recognition particle (SRP), human, labelled with Cy3B on SRP54 (C47) (human) (UniProt P61011); assay: stopped-flow FRET kinetics; as a1 but on RNC(ssmt) with HSW(RRL) (high salt wash from 200 nM rabbit reticulocyte ribosome)

| Kd [1] [nM] | KD for NAC-bound RNC (α•Kd,SRP) [2] [nM] | Kd [2] [nM] | KD for NAC-bound RNC (α•Kd,SRP) [3] [nM] | kon [4] [M⁻¹ s⁻¹] | fold lower kon than on RNC(ss) [5] [fold] | kon,max (fit of kon against nascent chain length) [6] [M⁻¹ s⁻¹] | kon,min (fit of kon against nascent chain length) [6] [M⁻¹ s⁻¹] | kon [7] [M⁻¹ s⁻¹] | kon [8] [M⁻¹ s⁻¹] | fold lower kon than on RNC(ss) [9] [fold] | kon [10] [M⁻¹ s⁻¹] | kon,max (fit of kon against nascent chain length) [11] [M⁻¹ s⁻¹] | kon,min (fit of kon against nascent chain length) [11] [M⁻¹ s⁻¹] | fold lower kon than on RNC(ss) [12] [fold] | fold lower kon than on RNC(ss) [13] [fold] | fold reduction of kon by HSW(RRL) [14] [fold] | Substance |
| --- | --- | --- | --- | --- | --- | --- | --- | --- | --- | --- | --- | --- | --- | --- | --- | --- | --- |
| 0.44 | 2.4 | 0.36 | 4.5 | – | – | – | – | – | – | – | – | – | – | – | – | – | signal recognition particle (SRP), human, labelled with tetramethylrhodamine (TMR) at residue 12 of SRP54 (from UniProt P61011 1-504; P09132 1-144; P49458 1-86; P37108 1-136; Q9UHB9 1-627; O76094 1-671) (complex) |
| – | – | – | – | 1e+06 | 40 | 940000 | 400000 | 500000 | 13000 | 100 | 570000 | 1.3e+06 | 22000 | 20 | 100 | 20 | soluble SRP receptor SRαβΔTM with the GTPase-deficient mutation SRα R458A, labelled with Atto647n (from UniProt P08240 1-638; Q9Y5M8 1-271) (complex) |

From paper PMC7673040
